Experimental data: US20200368364A1, “CYSTEINE PEPTIDE-ENABLED ANTIBODIES” (City of Hope, priority 2016, published 2020)

Experiments:
[1] = target: mutated I83 trastuzumab memAb (I83E); test: SPR at 37° C., meditope over immobilised I83E trastuzumab memAb
HER2 on SKBR3 cells = HER2 on SKBR3 cells (UniProt P04626); test: Flow cytometry on SKBR3 cells with 10 nM complex on ice and an AF488 secondary antibody. The other quadrants are printed as Q1 1.19, Q3 0 and Q4 0.18.
[2] = target: Her2 (antigen in the SPR of Example 1, FIG. 14) (UniProt P04626); test: SPR
HER2-Fc (R&D Systems) = HER2-Fc (R&D Systems) (UniProt P04626); test: SPR (Biacore T200), HER2-Fc amine-coupled to a CM5 chip, Fab flowed over; ± is the SD of three runs
[3] = target: original trastuzumab memAb (meditope-enabled trastuzumab, I83 in the light chain); test: SPR at 37° C., meditope over immobilised original trastuzumab memAb

Row | Kd [1] | Kd (HER2-Fc (R&D Systems)) | koff (HER2-Fc (R&D Systems)) | kon (HER2-Fc (R&D Systems)) | Substance | further results
1 | 0.86 nM | – | – | – | 5-diphenylalanine meditope (FIG. 3) (peptide) | –
2 | – | 0.296 nM | 0.000378 s⁻¹ | 1.28e+06 M⁻¹ s⁻¹ | Trastuzumab I83E, A175C Fab | –

The remaining lines, values behind:

Row | Substance | Kd [1] | Kd (HER2-Fc (R&D Systems)) | koff (HER2-Fc (R&D Systems)) | kon (HER2-Fc (R&D Systems)) | further results
3 | A175C meFab conjugated to the AlexaFluor647 thiopyridine-meditope | – | – | – | – | Q2 (share of events positive for both the AF647 meditope and the AF488 secondary antibody) (HER2 on SKBR3 cells): 98.6
4 | Trastuzumab I83E Fab (meditope-enabled trastuzumab V2 Fab) | – | 0.863 nM | 0.000674 s⁻¹ | 1.04e+06 M⁻¹ s⁻¹ | Kd [2]: 0.055 nM; koff [2]: 0.00021 s⁻¹; kon [2]: 3.8e+06 M⁻¹ s⁻¹
5 | original meditope, Ac-…-Am (peptide) | 38 nM | – | – | – | Kd [3]: 1000 nM
